The target of this assay is biotinylated recombinant SARS-CoV-2 wild type spike RBD (SARS-CoV-2, wild type, UniProt P0DTC2, biotin (biotinylated; detected with streptavidin-FITC)). In words: flow cytometry on cells. The following applies: one partner purified. On the technique in general: A flow cytometer gives signals particle by particle.

B1: REGN10987 scFv combinatorial variant d1 displayed on HEK 293T cells (scFv, V domains shown)
VH: QVQLVESGGGVVQPGRSLRLSCAASGFTFSNYAMYWVRQAPGKGLEWVAVISYTGSNKYYADSVKGRFTISRDNSKNTLYLQMNSLRTEDTAVYYCASGSDYGDYLLVYWGQGTLVTVSS
VL: QSALTQPASVSGSPGQSITISCTGTSSDVGGYNYVSWYQQHPGKAPKLMIYDVSKRPSGVSNRFSGSKSGNTASLTISGLQSEDEADYYCNSLTSIYTWVFGGGTKLTVL
On to B1, for which the binding result is recorded as “binds”.

B2: REGN10987 scFv combinatorial variant A1 displayed on HEK 293T cells (scFv, V domains shown)
VH: QVQLVESGGGVVQPGRSLRLSCAASGFTFSNYAMYWVRQAPGKGLEWVAVISYDGSFKYYADSVKGRFTISRDNSKNTLYLQMNSLRTEDTAVYYCASGSDYGDYNLVYWGQGTLVTVSS
VL: QSALTQPASVSGSPGQSITISCTGTSSDVGGYNYVSWYQQHPGKAPKLMIYDVSKRPSGVSNRFSGSKSGNTASLTISGLQSEDEADYYCNSLTSISTWVFGGGTKLTVL
In the case of B2, the binding result was “binds”.

B3: REGN10987 scFv combinatorial variant d8 displayed on HEK 293T cells (scFv, V domains shown)
VH: QVQLVESGGGVVQPGRSLRLSCAASGFTFSNYAMYWVRQAPGKGLEWVAVISYLGSNKYYADSVKGRFTISRDNSKNTLYLQMNSLRTEDTAVYYCASGSDYGDYLLVYWGQGTLVTVSS
VL: QSALTQPASVSGSPGQSITISCTGTSSDVGGYNYVSWYQQHPGKAPKLMIYDVSKRPSGVSNRFSGSKSGNTASLTISGLQSEDEADYYCNSLTSIYTWVFGGGTKLTVL
As to B3, the binding result is on record as “binds”.

B4: REGN10987 scFv combinatorial variant d6 displayed on HEK 293T cells (scFv, V domains shown)
VH: QVQLVESGGGVVQPGRSLRLSCAASGFTFSNYAMYWVRQAPGKGLEWVAVISYIGSNKYYADSVKGRFTISRDNSKNTLYLQMNSLRTEDTAVYYCASGSDYGDYLLVYWGQGTLVTVSS
VL: QSALTQPASVSGSPGQSITISCTGTSSDVGGYNYVSWYQQHPGKAPKLMIYDVSKRPSGVSNRFSGSKSGNTASLTISGLQSEDEADYYCNSLTSIYTWVFGGGTKLTVL
Turning to B4, the binding result is on record as “binds”.

B5: REGN10987 scFv combinatorial variant d2 displayed on HEK 293T cells (scFv, V domains shown)
VH: QVQLVESGGGVVQPGRSLRLSCAASGFTFSNYAMYWVRQAPGKGLEWVAVISYDGSHKYYADSVKGRFTISRDNSKNTLYLQMNSLRTEDTAVYYCASGSDYGDYLLVYWGQGTLVTVSS
VL: QSALTQPASVSGSPGQSITISCTGTSSDVGGYNYVSWYQQHPGKAPKLMIYDVSKRPSGVSNRFSGSKSGNTASLTISGLQSEDEADYYCNSLTSIYTWVFGGGTKLTVL
On to B5, for which the binding result is listed as “binds”.

B6: REGN10987 scFv combinatorial variant A2 displayed on HEK 293T cells (scFv, V domains shown)
VH: QVQLVESGGGVVQPGRSLRLSCAASGFTFSNYAMYWVRQAPGKGLEWVAVISYDGSTKYYADSVKGRFTISRDNSKNTLYLQMNSLRTEDTAVYYCASGSDYGDYNLVYWGQGTLVTVSS
VL: QSALTQPASVSGSPGQSITISCTGTSSDVGGYNYVSWYQQHPGKAPKLMIYDVSKRPSGVSNRFSGSKSGNTASLTISGLQSEDEADYYCNSLTSISTWVFGGGTKLTVL
Turning to B6, the binding result is given as “binds”.

B7: REGN10987 scFv combinatorial variant d3 displayed on HEK 293T cells (scFv, V domains shown)
VH: QVQLVESGGGVVQPGRSLRLSCAASGFTFSNYAMYWVRQAPGKGLEWVAVISYTGSHKYYADSVKGRFTISRDNSKNTLYLQMNSLRTEDTAVYYCASGSDYGDYLLVYWGQGTLVTVSS
VL: QSALTQPASVSGSPGQSITISCTGTSSDVGGYNYVSWYQQHPGKAPKLMIYDVSKRPSGVSNRFSGSKSGNTASLTISGLQSEDEADYYCNSLTSIYTWVFGGGTKLTVL
For B7, the binding result is reported as “binds”.

(Values after PMC9891525 (PLOS Pathogens, 2023).)
